Assay results from PMC10417383, “DNA-Binding Activity of CAMTA3 Is Essential for Its Function: Identification of Critical Amino Acids for Its Transcriptional Activity”.
Positions count from the first letter of the chain named.

Tests used:
Experiment in all cases: EMSA; 500 ng protein; 1X LightShift EMSA binding buffer, 50 ng/ul poly(dI-dC), 20 fmol probe in 20 ul, +/- 4 pmol unlabeled DNA, room temperature 30 min; 5% native PAGE, 0.5X TBE; pH and salt not given
Conditions in all cases: protein: recombinant; tags: His (pET28a); label: 3'-biotin on strand 1; blunt
[1] = biological target: T1, CAMTA3 CG-1 M1 (Arabidopsis thaliana, UniProt Q8GSA7 1-153, W26A)
T1 sequence: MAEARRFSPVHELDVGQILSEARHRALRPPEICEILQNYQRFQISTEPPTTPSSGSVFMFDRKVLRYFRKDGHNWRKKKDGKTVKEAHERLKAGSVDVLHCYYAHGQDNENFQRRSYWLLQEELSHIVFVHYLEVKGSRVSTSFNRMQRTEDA

[2] = biological target: T2, CAMTA3 CG-1 M6 (Arabidopsis thaliana, UniProt Q8GSA7 1-153, Y132A)
T2 sequence: T1 sequence with A26W, Y132A

[3] = biological target: T3, CAMTA3 CG-1 M3 (Arabidopsis thaliana, UniProt Q8GSA7 1-153, H88A)
T3 sequence: T1 sequence with A26W, H88A

[4] = biological target: T4, CAMTA3 CG-1 M4 (Arabidopsis thaliana, UniProt Q8GSA7 1-153, Y102A;Y103A)
T4 sequence: T1 sequence with A26W, Y102A, Y103A

[5] = biological target: T5, CAMTA3 CG-1 M2 (Arabidopsis thaliana, UniProt Q8GSA7 1-153, W75A)
T5 sequence: T1 sequence with A26W, W75A

Measured: binding result

B1: PDF1.4 promoter probe (dsDNA)
DNA 1: CGTGAAAGTCACGCGCCAAGAACAAA
DNA 2: TTTGTTCTTGGCGCGTGACTTTCACG
no binding: all assays above
